T1: phosphorylase a (Oryctolagus cuniculus, UniProt P00489)
T1 sequence (P00489 2-843 limits assumed): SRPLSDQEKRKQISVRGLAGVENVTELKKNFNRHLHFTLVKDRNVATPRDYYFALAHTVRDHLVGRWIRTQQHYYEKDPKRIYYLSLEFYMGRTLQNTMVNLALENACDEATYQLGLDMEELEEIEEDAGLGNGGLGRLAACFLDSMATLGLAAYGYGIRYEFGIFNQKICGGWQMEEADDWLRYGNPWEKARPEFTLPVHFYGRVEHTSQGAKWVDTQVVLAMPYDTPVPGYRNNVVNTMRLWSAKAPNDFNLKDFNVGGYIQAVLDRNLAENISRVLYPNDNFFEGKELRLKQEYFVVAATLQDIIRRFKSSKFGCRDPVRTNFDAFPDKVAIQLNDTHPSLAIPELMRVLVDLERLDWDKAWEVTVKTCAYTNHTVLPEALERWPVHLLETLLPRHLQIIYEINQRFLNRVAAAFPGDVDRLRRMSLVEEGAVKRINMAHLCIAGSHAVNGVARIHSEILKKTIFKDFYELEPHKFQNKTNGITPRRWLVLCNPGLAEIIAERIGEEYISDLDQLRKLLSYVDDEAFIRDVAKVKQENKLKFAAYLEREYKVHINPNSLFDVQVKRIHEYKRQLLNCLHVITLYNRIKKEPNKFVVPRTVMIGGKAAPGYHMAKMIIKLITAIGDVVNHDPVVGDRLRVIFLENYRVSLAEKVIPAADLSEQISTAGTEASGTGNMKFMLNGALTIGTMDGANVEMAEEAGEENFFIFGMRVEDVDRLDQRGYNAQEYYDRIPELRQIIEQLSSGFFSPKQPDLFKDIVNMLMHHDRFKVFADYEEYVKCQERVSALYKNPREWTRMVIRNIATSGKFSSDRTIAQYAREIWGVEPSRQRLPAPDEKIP

B1: GST-GL: glutathione S-transferase fused to the full-length GL coding region (residues 1-284) of rat liver GL (protein)
chain: MAVDIEYSYSSMAPSLRRERFTFKISPKLNKPLRPCIQLGSKDEAGRMVAPTVQEKKVKKRVSFADNQGLALTMVKVFSEFDDPLDIPFNITELLDNIVSLTTAESESFVLDFPQPSADYLDFRNRLQTNHVCLENCVLKEKAIAGTVKVQNLAFEKVVKIRMTFDTWKSFTDFPCQYVKDTYAGSDRDTFSFDISLPEKIQSYERMEFAVCYECNGQSYWDSNKGKNYRITRAELRSTQGMTEPYNGPDFGISFDQFGSPRCSFGLFPEWPSYLGYEKLGPYY
modifications: left off: a dimerising Fc or GST
notes: glutathione S-transferase fused to the full-length GL coding region (residues 1-284) of rat liver GL
B2: GST-GL(94-284): GST fused to GL residues 94-284 (protein)
chain: LLDNIVSLTTAESESFVLDFPQPSADYLDFRNRLQTNHVCLENCVLKEKAIAGTVKVQNLAFEKVVKIRMTFDTWKSFTDFPCQYVKDTYAGSDRDTFSFDISLPEKIQSYERMEFAVCYECNGQSYWDSNKGKNYRITRAELRSTQGMTEPYNGPDFGISFDQFGSPRCSFGLFPEWPSYLGYEKLGPYY
modifications: left off: a dimerising Fc or GST
B3: GST-GL(1-216): GST fused to GL residues 1-216 (protein)
chain: MAVDIEYSYSSMAPSLRRERFTFKISPKLNKPLRPCIQLGSKDEAGRMVAPTVQEKKVKKRVSFADNQGLALTMVKVFSEFDDPLDIPFNITELLDNIVSLTTAESESFVLDFPQPSADYLDFRNRLQTNHVCLENCVLKEKAIAGTVKVQNLAFEKVVKIRMTFDTWKSFTDFPCQYVKDTYAGSDRDTFSFDISLPEKIQSYERMEFAVCYECN
modifications: left off: a dimerising Fc or GST
B4: GST-GL(216-284): GST fused to GL residues 216-284 (protein)
chain: {GST}-NGQSYWDSNKGKNYRITRAELRSTQGMTEPYNGPDFGISFDQFGSPRCSFGLFPEWPSYLGYEKLGPYY
B5: GST-GL(1-271): GST fused to GL residues 1-271 (protein)
chain: MAVDIEYSYSSMAPSLRRERFTFKISPKLNKPLRPCIQLGSKDEAGRMVAPTVQEKKVKKRVSFADNQGLALTMVKVFSEFDDPLDIPFNITELLDNIVSLTTAESESFVLDFPQPSADYLDFRNRLQTNHVCLENCVLKEKAIAGTVKVQNLAFEKVVKIRMTFDTWKSFTDFPCQYVKDTYAGSDRDTFSFDISLPEKIQSYERMEFAVCYECNGQSYWDSNKGKNYRITRAELRSTQGMTEPYNGPDFGISFDQFGSPRCSFGLFPEW
modifications: left off: a dimerising Fc or GST
B6: GST-GL(1-257): GST fused to GL residues 1-257 (protein)
chain: MAVDIEYSYSSMAPSLRRERFTFKISPKLNKPLRPCIQLGSKDEAGRMVAPTVQEKKVKKRVSFADNQGLALTMVKVFSEFDDPLDIPFNITELLDNIVSLTTAESESFVLDFPQPSADYLDFRNRLQTNHVCLENCVLKEKAIAGTVKVQNLAFEKVVKIRMTFDTWKSFTDFPCQYVKDTYAGSDRDTFSFDISLPEKIQSYERMEFAVCYECNGQSYWDSNKGKNYRITRAELRSTQGMTEPYNGPDFGISFDQ
modifications: left off: a dimerising Fc or GST
B7: GST-GL(59-284): GST fused to GL residues 59-284 (protein)
chain: KKRVSFADNQGLALTMVKVFSEFDDPLDIPFNITELLDNIVSLTTAESESFVLDFPQPSADYLDFRNRLQTNHVCLENCVLKEKAIAGTVKVQNLAFEKVVKIRMTFDTWKSFTDFPCQYVKDTYAGSDRDTFSFDISLPEKIQSYERMEFAVCYECNGQSYWDSNKGKNYRITRAELRSTQGMTEPYNGPDFGISFDQFGSPRCSFGLFPEWPSYLGYEKLGPYY
modifications: left off: a dimerising Fc or GST
B8: GST-GL(134-284): GST fused to GL residues 134-284 (protein)
chain: LENCVLKEKAIAGTVKVQNLAFEKVVKIRMTFDTWKSFTDFPCQYVKDTYAGSDRDTFSFDISLPEKIQSYERMEFAVCYECNGQSYWDSNKGKNYRITRAELRSTQGMTEPYNGPDFGISFDQFGSPRCSFGLFPEWPSYLGYEKLGPYY
modifications: left off: a dimerising Fc or GST
B9: GST-GL(1-94): GST fused to GL residues 1-94 (protein)
chain: MAVDIEYSYSSMAPSLRRERFTFKISPKLNKPLRPCIQLGSKDEAGRMVAPTVQEKKVKKRVSFADNQGLALTMVKVFSEFDDPLDIPFNITEL
modifications: left off: a dimerising Fc or GST
B10: GST-GL(170-284): GST fused to GL residues 170-284 (protein)
chain: SFTDFPCQYVKDTYAGSDRDTFSFDISLPEKIQSYERMEFAVCYECNGQSYWDSNKGKNYRITRAELRSTQGMTEPYNGPDFGISFDQFGSPRCSFGLFPEWPSYLGYEKLGPYY
modifications: left off: a dimerising Fc or GST

Where no end group is shown, it is not given here.

Sequence of PP1γ (P36873 whole entry, the tested form may be a part): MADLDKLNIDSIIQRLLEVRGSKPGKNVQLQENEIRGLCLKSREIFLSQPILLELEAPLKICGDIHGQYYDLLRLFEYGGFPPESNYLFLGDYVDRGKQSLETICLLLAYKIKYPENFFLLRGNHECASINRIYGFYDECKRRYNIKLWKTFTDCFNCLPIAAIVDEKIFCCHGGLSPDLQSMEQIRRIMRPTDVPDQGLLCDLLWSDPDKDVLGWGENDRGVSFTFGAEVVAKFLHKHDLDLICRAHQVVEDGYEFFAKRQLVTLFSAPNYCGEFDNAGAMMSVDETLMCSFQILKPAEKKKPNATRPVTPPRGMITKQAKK

Tested on in the first data set: not listed separately
Description: Co-sedimentation of GST-GL fusion proteins with hepatic glycogen. The format is binding, rabbit. To be noted: 100 000×g for 1 h, absence of glycogen. The procedure:
Protein free glycogen was prepared by the following protocol. Glycogen-protein particles were isolated from the livers of New Zealand White rabbits. Protein was then stripped from the glycogen by boiling for 5 min in 1% (w/v) sodium dodecyl sulphate (SDS). The suspension was cooled to room temperature and centrifuged for 60 min at 100,000×g. The 100,000×g pellet was then resuspended in water, and the centrifugation and resuspension procedure repeated a further two times in order to completely remove residual SDS and protein. Any contaminating nucleotides were removed by incubating the glycogen for 15 min with mixed bed resin, AG 501-X8(D). The resin was removed by filtration and the glycogen concentration determined by the phenol/sulphuric acid method.
Protein free glycogen (10 mg/ml) in 50 mM Tris/HCl pH 7.5, 150 mM NaCl, 0.1% (v/v) 2-mercaptoethanol, 0.02% (w/v) Brij-35, 0.1 mg/ml bovine serum albumin was mixed with GST-GL fusion proteins (50 nM). […] The supernatant and pellet fractions were denatured in SDS, subjected to SDS-polyacrylamide gel electrophoresis and transferred to nitrocellulose. […]
In the case of B1, the “aggregation (pelleted in the absence of glycogen)” value is “strong tendency to aggregate”.

The same data set, now with this note: protein free glycogen 10 mg/ml, fusion protein 50 nM, 100,000×g, immunoblot of supernatant and pellet.
Take B2: the “co-sedimentation with glycogen (binding to glycogen)” value is listed as “detected exclusively in the 100,000×g pellet”.

The target in another data set is T1, phosphorylase a. Nature of the data set: Blot overlay binding of 32P-labelled phosphorylase a to GST-GL fusion proteins. Particulars: 100 nM 32P-phosphorylase a, fusion proteins on nitrocellulose membranes. Here is the method:
(§1) GST-GL fusion proteins were separated on SDS-PAGE and transferred to nitrocellulose membranes. They were probed with digoxigenin-PP1γ. Alternatively they were examined for binding of ^32P-labelled phosphorylase a. Non-specific binding to the membranes was blocked by incubation in 5% (w/v) marvel dried milk powder, 25 mM Tris/HCI pH 7.5, 500 mM NaCl for 16 hours. The samples were then probed for 3 h with ^32P-labelled phosphorylase a (100 nM) in 25 mM Tris/HCl pH 7.5, 250 mM NaCl, 1 mg/ml bovine serum albumin. The membranes were subsequently washed (3×30 min) with 25 mM Tris/HCl pH 7.5 before autoradiography.
Consider “GST-GL(257-284): GST fused to GL residues 257-284 ({GST}-QFGSPRCSFGLFPEWPSYLGYEKLGPYY)”, for which the “binding of 32P-labelled phosphorylase a” value is listed as “found to bind”.

For “GST-GL(269-284): GST fused to GL residues 269-284, the C-terminal 16 amino acids ({GST}-PEWPSYLGYEKLGPYY)”, the “binding of 32P-labelled phosphorylase a” value is reported as “found to bind”.

As to B3, the “binding of 32P-labelled phosphorylase a” value is “not”.

With B4, the “binding of 32P-labelled phosphorylase a” value is on record as “found to bind”.

Regarding B1, the “binding of 32P-labelled phosphorylase a” value is on record as “found to bind”.

With B5, the “binding of 32P-labelled phosphorylase a” value is given as “not”.

With B6, the “binding of 32P-labelled phosphorylase a” value is on record as “not”.

A further data set addresses PP1γ (Homo sapiens, UniProt P36873). Nature of the data set: Blot overlay binding of digoxigenin-labelled PP1γ to GST-GL fusion proteins. Particulars: fusion proteins on nitrocellulose membranes. The procedure: as §1
“GST-GL(1-59): GST fused to GL residues 1-59 ({GST}-MAVDIEYSYSSMAPSLRRERFTFKISPKLNKPLRPCIQLGSKDEAGRMVAPTVQEKKVK)”: the “binding of digoxigenin-labelled PP1γ” value is “not”.

For B7, the “binding of digoxigenin-labelled PP1γ” value is reported as “binds”.

Regarding B2, the “binding of digoxigenin-labelled PP1γ” value is “not”.

For B8, the “binding of digoxigenin-labelled PP1γ” value is on record as “not”.

In the case of B1, the “binding of digoxigenin-labelled PP1γ” value is given as “binds”.

B9: the “binding of digoxigenin-labelled PP1γ” value is listed as “binds”.

Take B10: the “binding of digoxigenin-labelled PP1γ” value was “not”.

In the next data set the test system is PP1GL complex.
Assay: not given
Particulars: previous experiments; cited from earlier work.
For “GM 63-93: peptide comprising residues 63-93 of the skeletal muscle glycogen targeting subunit (RVSFADSFGFNLVSVKEFDCWELPSASTTFD; UniProt Q16821 63-93, looked up, fragment)”, the “disruption of the PP1GL complex” value is on record as “did not abolish binding of GL to PP1”.

In the case of “M110 1-38: peptide comprising the amino terminal 38 residues of the M110 subunit of the myosin targeting subunit of PP1 (MKMADAKQKRNEQLKRWIGSETDLEPPVVKRQKTKVKF; UniProt O14974 1-38, looked up, fragment)”, the “disruption of the PP1GL complex” value is reported as “could disrupt the PP1GL complex”.

The values are drawn from US6710026B1, “Protein domains in the hepatic glycogen-targetting subunit of protein phosphatase 1 and methods of making and using the same” (Medical Research Counsel, priority 1998, dated 2004).
